From US20260365739 (published 2026)

Biological target: EGFR (human, UniProt P00533)
Test: SPR

Kd	Binder
14.6 nM	EG2 (antibody, V domains shown) VH: QVQLVESGGGLVQAGDSLRVSCAASGRDFSDYVMGWFRQAPGKEREFVAAISRNGLTTRYADSVKGRFTISRDNDKNMVYLQMNSLKPEDTAVYYCAVNSAGTYVSPRSREYDYWGQGTQVTVSS
10.6 nM	EG2_4_25 (antibody, V domains shown) VH: QVQCVESGGGLVQAGDSLRVSCACSGRDFSDYVMGWFRQAPGKEREFVAAISRNGLTTRYADSVKGRFTISRDNDKNMVYLQMNSLKPEDTAVYYCAVNSAGTYVSPRSREYDYWGQGTQVTVSS
47.2 nM	EG2_22_88 (antibody, V domains shown) VH: QVQLVESGGGLVQAGDSLRVCCAASGRDFSDYVMGWFRQAPGKEREFVAAISRNGLTTRYADSVKGRFTISRDNDKNMVCLQMNSLKPEDTAVYYCAVNSAGTYVSPRSREYDYWGQGTQVTVSS
25.7 nM	EG2_6_119 (designed binder) QVQLVCSGGGLVQAGDSLRVSCAASGRDFSDYVMGWFRQAPGKEREFVAAISRNGLTTRYADSVKGRFTISRDNDKNMVYLQMNSLKPEDTAVYYCAVNSAGTYVSPRSREYDYWCQGTQVTVSS
62.5 nM	EG2_24_86 (antibody, V domains shown) VH: QVQLVESGGGLVQAGDSLRVSCCASGRDFSDYVMGWFRQAPGKEREFVAAISRNGLTTRYADSVKGRFTISRDNDKNCVYLQMNSLKPEDTAVYYCAVNSAGTYVSPRSREYDYWGQGTQVTVSS

Biological target: IGF1R (human, UniProt P08069)
Sequence (P08069 31-932): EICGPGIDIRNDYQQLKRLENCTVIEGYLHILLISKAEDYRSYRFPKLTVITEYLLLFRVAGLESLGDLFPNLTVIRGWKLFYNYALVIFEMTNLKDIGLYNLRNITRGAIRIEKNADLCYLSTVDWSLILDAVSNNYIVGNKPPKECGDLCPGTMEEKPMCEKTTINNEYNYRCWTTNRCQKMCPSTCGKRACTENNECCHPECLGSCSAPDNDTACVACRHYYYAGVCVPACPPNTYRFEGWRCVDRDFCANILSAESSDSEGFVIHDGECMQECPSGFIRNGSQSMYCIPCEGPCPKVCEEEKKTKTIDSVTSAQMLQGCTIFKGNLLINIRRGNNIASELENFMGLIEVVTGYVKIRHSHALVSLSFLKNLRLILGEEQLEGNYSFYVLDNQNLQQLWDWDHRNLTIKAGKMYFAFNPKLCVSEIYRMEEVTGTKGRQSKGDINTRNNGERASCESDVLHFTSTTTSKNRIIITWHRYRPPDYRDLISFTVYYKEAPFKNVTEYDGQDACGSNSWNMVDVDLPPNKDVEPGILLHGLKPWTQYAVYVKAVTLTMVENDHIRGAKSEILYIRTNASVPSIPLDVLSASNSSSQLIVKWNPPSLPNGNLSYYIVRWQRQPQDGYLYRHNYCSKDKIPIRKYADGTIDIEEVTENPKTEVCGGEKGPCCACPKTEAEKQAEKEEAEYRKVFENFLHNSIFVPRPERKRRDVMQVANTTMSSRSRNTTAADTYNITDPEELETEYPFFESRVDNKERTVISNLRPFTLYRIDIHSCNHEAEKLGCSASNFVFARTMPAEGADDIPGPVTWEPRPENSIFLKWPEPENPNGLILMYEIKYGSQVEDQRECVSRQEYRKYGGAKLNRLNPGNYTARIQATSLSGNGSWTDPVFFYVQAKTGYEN
Test: SPR

Kd	Binder
1.4 nM	IGF1R3_6_119 (designed binder) QVKLECSGGGLVQAGGSLRLSCVASEYPSNFYAMSWFRQAPGKEREFVAGVSRDGLTTLYADSVKGRFTMSRDNAKNTVDLQMNSVKAEDTAVYYCAIVITGVWNKVDVNSRSYHYWCQGTQVTVSS
0.8 nM	IGF1R3_22_88 (antibody, V domains shown) VH: QVKLEESGGGLVQAGGSLRLCCVASEYPSNFYAMSWFRQAPGKEREFVAGVSRDGLTTLYADSVKGRFTMSRDNAKNTVCLQMNSVKAEDTAVYYCAIVITGVWNKVDVNSRSYHYWGQGTQVTVSS
0.9 nM	IGF1R3 (antibody, V domains shown) VH: QVKLEESGGGLVQAGGSLRLSCVASEYPSNFYAMSWFRQAPGKEREFVAGVSRDGLTTLYADSVKGRFTMSRDNAKNTVDLQMNSVKAEDTAVYYCAIVITGVWNKVDVNSRSYHYWGQGTQVTVSS
5.3 nM	IGF1R3_24_86 (antibody, V domains shown) VH: QVKLEESGGGLVQAGGSLRLSCCASEYPSNFYAMSWFRQAPGKEREFVAGVSRDGLTTLYADSVKGRFTMSRDNAKNCVDLQMNSVKAEDTAVYYCAIVITGVWNKVDVNSRSYHYWGQGTQVTVSS
2.3 nM	IGF1R3_4_25 (antibody, V domains shown) VH: QVKCEESGGGLVQAGGSLRLSCVCSEYPSNFYAMSWFRQAPGKEREFVAGVSRDGLTTLYADSVKGRFTMSRDNAKNTVDLQMNSVKAEDTAVYYCAIVITGVWNKVDVNSRSYHYWGQGTQVTVSS
0.8 nM	IGF1R5_4_25 (antibody, V domains shown) VH: QVKCEESGGGLVQAGGSLRLSCACSGRTIDNYAMAWSRQAPGKDREFVATIDWGDGGARYANSVKGRFTISRDNAKGTMYLQMNNLEPEDTAVYSCAMARQSRVNLDVARYDYWGQGTQVTVSS
1.1 nM	IGF1R5 (antibody, V domains shown) VH: QVKLEESGGGLVQAGGSLRLSCAASGRTIDNYAMAWSRQAPGKDREFVATIDWGDGGARYANSVKGRFTISRDNAKGTMYLQMNNLEPEDTAVYSCAMARQSRVNLDVARYDYWGQGTQVTVSS
1.4 nM	IGF1R5_22_88 (antibody, V domains shown) VH: QVKLEESGGGLVQAGGSLRLCCAASGRTIDNYAMAWSRQAPGKDREFVATIDWGDGGARYANSVKGRFTISRDNAKGTMCLQMNNLEPEDTAVYSCAMARQSRVNLDVARYDYWGQGTQVTVSS
0.5 nM	IGF1R4_22_88 (antibody, V domains shown) VH: QVKLEESGGGLVQAGGSLRLCCEVSGGTVSPTAMGWFRQAPGKEREFVGHITWSRGTTRVASSVKDRFTISRDSAKNTVCLQMNSLKSEDTAVYYCAASTFLRILPEESAYTYWGQGTQVTVSS
1.1 nM	IGF1R4_24_86 (antibody, V domains shown) VH: QVKLEESGGGLVQAGGSLRLSCCVSGGTVSPTAMGWFRQAPGKEREFVGHITWSRGTTRVASSVKDRFTISRDSAKNCVYLQMNSLKSEDTAVYYCAASTFLRILPEESAYTYWGQGTQVTVSS
0.3 nM	IGF1R4_6_119 (designed binder) QVKLECSGGGLVQAGGSLRLSCEVSGGTVSPTAMGWFRQAPGKEREFVGHITWSRGTTRVASSVKDRFTISRDSAKNTVYLQMNSLKSEDTAVYYCAASTFLRILPEESAYTYWCQGTQVTVSS
0.5 nM	IGF1R4_4_25 (antibody, V domains shown) VH: QVKCEESGGGLVQAGGSLRLSCECSGGTVSPTAMGWFRQAPGKEREFVGHITWSRGTTRVASSVKDRFTISRDSAKNTVYLQMNSLKSEDTAVYYCAASTFLRILPEESAYTYWGQGTQVTVSS
0.3 nM	IGF1R4 (antibody, V domains shown) VH: QVKLEESGGGLVQAGGSLRLSCEVSGGTVSPTAMGWFRQAPGKEREFVGHITWSRGTTRVASSVKDRFTISRDSAKNTVYLQMNSLKSEDTAVYYCAASTFLRILPEESAYTYWGQGTQVTVSS
